Test results as given in patent US7521047.

Columns and labels:
[1] = target: HLA-DR on MHH-PREB-1 cells (human); experiment: cell-based or functional assay
[2] = target: HLA-DR on MHH-CALL-4 cells (human); experiment: cell-based or functional assay
[3] = target: HLA-DR on HD-MY-Z cells (human); experiment: cell-based or functional assay
[4] = target: HLA-DR on GRANTA-519 cells (human); experiment: cell-based or functional assay
[5] = target: HLA-DR on L1236 cells (human); experiment: cell-based or functional assay
[6] = target: HLA-DR on RPMI-8226 cells (human); experiment: cell-based or functional assay
[7] = target: HLA-DR on EOL-1 cells (human); experiment: cell-based or functional assay
[8] = target: HLA-DR on MN-60 cells (human); experiment: cell-based or functional assay
[9] = target: chimeric 0401-IE class II molecule on cells of transgenic mice (human/murine chimera); experiment: cell-based or functional assay
[10] = target: HLA-DR on KM-H2 cells (human); experiment: cell-based or functional assay
[11] = target: HLA-DR on BJAB cells (human); experiment: cell-based or functional assay
[12] = target: HLA-DR on DOHH-2 cells (human); experiment: cell-based or functional assay
[13] = target: HLA-DR on SR-786 cells (human); experiment: cell-based or functional assay
[14] = target: HLA-DR on LP-1 cells (human); experiment: cell-based or functional assay
[15] = target: HLA-DR on chronic lymphoid leukemia (CLL) cells of patients (human); experiment: cell-based or functional assay
[16] = target: HLA-DR on L-363 cells (human); experiment: cell-based or functional assay
[17] = target: HLA-DR on KARPAS-422 cells (human); experiment: cell-based or functional assay
[18] = target: HLA-DR on GRANTA-519 cells (human); experiment: flow cytometry, GRANTA-519 cells stained with FITC-labelled L243 (HLA-DR expression)
[19] = target: HLA-DR on EOL-1 cells (human); experiment: flow cytometry, EOL-1 cells stained with FITC-labelled L243 (HLA-DR expression)
[20] = target: HLA-DR on DOHH-2 cells (human); experiment: flow cytometry, DOHH-2 cells stained with FITC-labelled L243 (HLA-DR expression)
[21] = target: HLA-DR on KARPAS-299 cells (human); experiment: flow cytometry, KARPAS-299 cells stained with FITC-labelled L243 (HLA-DR expression)
[22] = target: HLA-DR on ARH-77 cells (human); experiment: flow cytometry, ARH-77 cells stained with FITC-labelled L243 (HLA-DR expression)
[23] = target: HLA-DR on MHH-PREB-1 cells (human); experiment: flow cytometry, MHH-PREB-1 cells stained with FITC-labelled L243 (HLA-DR expression)
[24] = target: HLA-DR on LG-2 cells (human); experiment: flow cytometry, LG-2 cells stained with FITC-labelled L243 (HLA-DR expression)
[25] = target: HLA-DR on MHH-CALL-4 cells (human); experiment: flow cytometry, MHH-CALL-4 cells stained with FITC-labelled L243 (HLA-DR expression)
[26] = target: HLA-DR on NALM-1 cells (human); experiment: flow cytometry, NALM-1 cells stained with FITC-labelled L243 (HLA-DR expression)
[27] = target: HLA-DR on KARPAS-422 cells (human); experiment: flow cytometry, KARPAS-422 cells stained with FITC-labelled L243 (HLA-DR expression)
[28] = target: HLA-DR on RPMI-8226 cells (human); experiment: flow cytometry, RPMI-8226 cells stained with FITC-labelled L243 (HLA-DR expression)
[29] = target: HLA-DR on HD-MY-Z cells (human); experiment: flow cytometry, HD-MY-Z cells stained with FITC-labelled L243 (HLA-DR expression)
[30] = target: HLA-DR on HDLM-2 cells (human); experiment: flow cytometry, HDLM-2 cells stained with FITC-labelled L243 (HLA-DR expression)
[31] = target: HLA-DR on KM-H2 cells (human); experiment: flow cytometry, KM-H2 cells stained with FITC-labelled L243 (HLA-DR expression)
[32] = target: HLA-DR on NALM-1 cells (human); experiment: cell-based or functional assay
[33] = target: HLA-DR on HDLM-2 cells (human); experiment: cell-based or functional assay
[34] = target: HLA-DR on L-428 cells (human); experiment: cell-based or functional assay
[35] = target: HLA-DR on KARPAS-299 cells (human); experiment: cell-based or functional assay
[36] = target: HLA-DR on ARH-77 cells (human); experiment: cell-based or functional assay
[37] = target: HLA-DR on HC-1 cells (human); experiment: cell-based or functional assay
[38] = target: HLA-DR on RAJI cells (human); experiment: cell-based or functional assay
[39] = target: HLA-DR on LG-2 cells (human); experiment: cell-based or functional assay
[40] = target: HLA-DR on MHH-CALL-2 cells (human); experiment: cell-based or functional assay
[41] = target: HLA-DR on BONNA-12 cells (human); experiment: cell-based or functional assay
[42] = target: HLA-DR on L-428 cells (human); experiment: flow cytometry, L-428 cells stained with FITC-labelled L243 (HLA-DR expression)
[43] = target: HLA-DR (allele and form not stated); experiment: not stated (Z. A. Nagy, unpublished)
[44] = target: HLA-DR on SR-786 cells (human); experiment: flow cytometry, SR-786 cells stained with FITC-labelled L243 (HLA-DR expression)
[45] = target: HLA-DR on L-363 cells (human); experiment: flow cytometry, L-363 cells stained with FITC-labelled L243 (HLA-DR expression)
[46] = target: HLA-DR on L1236 cells (human); experiment: flow cytometry, L1236 cells stained with FITC-labelled L243 (HLA-DR expression)
[47] = target: HLA-DR on BONNA-12 cells (human); experiment: flow cytometry, BONNA-12 cells stained with FITC-labelled L243 (HLA-DR expression)
[48] = target: HLA-DR on MN-60 cells (human); experiment: flow cytometry, MN-60 cells stained with FITC-labelled L243 (HLA-DR expression)
[49] = target: HLA-DR on LP-1 cells (human); experiment: flow cytometry, LP-1 cells stained with FITC-labelled L243 (HLA-DR expression)
[50] = target: HLA-DR on BJAB cells (human); experiment: flow cytometry, BJAB cells stained with FITC-labelled L243 (HLA-DR expression)
[51] = target: HLA-DR on HC-1 cells (human); experiment: flow cytometry, HC-1 cells stained with FITC-labelled L243 (HLA-DR expression)
[52] = target: HLA-DR on RAJI cells (human); experiment: flow cytometry, RAJI cells stained with FITC-labelled L243 (HLA-DR expression)

L243 (antibody), sequence (VH): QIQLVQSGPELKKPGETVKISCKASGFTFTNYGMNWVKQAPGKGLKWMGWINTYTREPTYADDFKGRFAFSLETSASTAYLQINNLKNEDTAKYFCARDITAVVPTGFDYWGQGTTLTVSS
L243 (antibody), sequence (VL): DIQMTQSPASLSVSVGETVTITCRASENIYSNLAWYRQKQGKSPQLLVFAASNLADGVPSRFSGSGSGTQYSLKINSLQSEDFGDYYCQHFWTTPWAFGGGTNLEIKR
MS-GPC-8 IgG4 (antibody), sequence (VH): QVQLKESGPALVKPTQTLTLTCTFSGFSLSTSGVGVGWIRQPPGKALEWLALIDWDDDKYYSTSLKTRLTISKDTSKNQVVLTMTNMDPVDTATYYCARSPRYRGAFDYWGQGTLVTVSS
MS-GPC-8 IgG4 (antibody), sequence (VL): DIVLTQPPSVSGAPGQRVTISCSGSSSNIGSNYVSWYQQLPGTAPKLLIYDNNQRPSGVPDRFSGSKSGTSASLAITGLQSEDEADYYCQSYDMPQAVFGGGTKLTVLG

In the case of MS-GPC-8 IgG4 (antibody), the % Killing by mAb, 50 nM, 4 h [1] is reported as 2%, the % Killing by mAb, 50 nM, 4 h [2] is reported as 43% and the % Killing by mAb, 50 nM, 4 h [3] is reported as 49%. It also gave a % Killing by mAb, 50 nM, 4 h [4] of 76%, a % Killing by mAb, 50 nM, 4 h [5] of 44% and a % Killing by mAb, 50 nM, 4 h [6] of 14%. The % Killing by mAb, 50 nM, 4 h [7] was 36%, the % Killing by mAb, 50 nM, 4 h [8] was 71% and the IC50 of inhibition of IL-2 secretion from T-Hyb 1 cells [9] was 11 nM. For the same substance, the Maximum inhibition(%) of IL-2 secretion [9] was 100%, the % Killing by mAb, 50 nM, 4 h [10] was 75% and the % Killing by mAb, 50 nM, 4 h [11] was 49%. The % Killing by mAb, 50 nM, 4 h [12] was 58%, the % Killing by mAb, 50 nM, 4 h [13] was 1% and the % Killing by mAb, 50 nM, 4 h [14] was 61%. For the same substance, the viable CLL cells after 24 hours, 100 nM IgG (told for all three human IgGs) [15] was 33%, the viable activated CLL cells after 4 hours, 100 nM IgG (average for all patient samples and antibodies) [15] was 24% and the % Killing by mAb, 50 nM, 4 h [16] was 26%. The % Killing by mAb, 50 nM, 4 h [17] was 51%.

Substance L243 (antibody) has an MFL (mean fluorescence intensity) [18] of 1460 MFL, an MFL (mean fluorescence intensity) [19] of 536 MFL and an MFL (mean fluorescence intensity) [20] of 444 MFL. It also gave an MFL (mean fluorescence intensity) [21] of 798 MFL, an MFL (mean fluorescence intensity) [22] of 301 MFL and an MFL (mean fluorescence intensity) [23] of 175 MFL. The MFL (mean fluorescence intensity) [24] was 458 MFL, the MFL (mean fluorescence intensity) [25] was 348 MFL and the MFL (mean fluorescence intensity) [26] was 1080 MFL. For the same substance, the MFL (mean fluorescence intensity) [27] was 211 MFL, the MFL (mean fluorescence intensity) [28] was 19 MFL and the MFL (mean fluorescence intensity) [29] was 79 MFL. For the same substance, the MFL (mean fluorescence intensity) [30] was 326 MFL, the MFL (mean fluorescence intensity) [31] was 619 MFL and the % Killing by mAb, 200 nM, 4 h [1] was 3%. It also gave a % Killing by mAb, 200 nM, 4 h [32] of 44%, a % Killing by mAb, 200 nM, 4 h [2] of 35% and a % Killing by mAb, 200 nM, 4 h [3] of 35%. For the same substance, the % Killing by mAb, 200 nM, 4 h [4] was 83%, the % Killing by mAb, 200 nM, 4 h [5] was 52% and the % Killing by mAb, 200 nM, 4 h [33] was 77%. It also gave a % Killing by mAb, 200 nM, 4 h [6] of 6%, a % Killing by mAb, 200 nM, 4 h [7] of 22% and a % Killing by mAb, 200 nM, 4 h [8] of 46%. The % Killing by mAb, 200 nM, 4 h [10] was 81%, the % Killing by mAb, 200 nM, 4 h [34] was 82% and the % Killing by mAb, 200 nM, 4 h [11] was 53%. It also gave a % Killing by mAb, 200 nM, 4 h [35] of 78%, a % Killing by mAb, 200 nM, 4 h [36] of 88% and a % Killing by mAb, 200 nM, 4 h [12] of 29%. It also gave a % Killing by mAb, 200 nM, 4 h [13] of 3%, a % Killing by mAb, 200 nM, 4 h [37] of 88% and a % Killing by mAb, 200 nM, 4 h [38] of 69%. For the same substance, the % Killing by mAb, 200 nM, 4 h [39] was 79%, the % Killing by mAb, 200 nM, 4 h [14] was 12% and the % Killing by mAb, 200 nM, 4 h [40] was 5%. The % Killing by mAb, 200 nM, 4 h [16] was 6%, the % Killing by mAb, 200 nM, 4 h [17] was 25% and the % Killing by mAb, 200 nM, 4 h [41] was 92%. It also gave an MFL (mean fluorescence intensity) [42] of 244 MFL, a Kd [43] of 10 nM and an MFL (mean fluorescence intensity) [44] of 142 MFL. It also gave an MFL (mean fluorescence intensity) [45] of 49 MFL, an MFL (mean fluorescence intensity) [46] of 41 MFL and an MFL (mean fluorescence intensity) [47] of 2430 MFL. The MFL (mean fluorescence intensity) [48] was 1120 MFL, the MFL (mean fluorescence intensity) [49] was 315 MFL and the MFL (mean fluorescence intensity) [50] was 338 MFL. The MFL (mean fluorescence intensity) [51] was 372 MFL and the MFL (mean fluorescence intensity) [52] was 617 MFL.
